Laboratory results published in US20230056252A1 (Gilead, published 2023).

What was measured:
[1] = target: T1, CD3 expressed on cell-surface of primary human T cells (human, UniProt P07766 23-207; P04234 22-171); assay: flow cytometry on PBMCs, % anti-huIgG+ CD4+ cells, donor hu 151
T1 construct: also called cell-surface CD3; human CD3

[2] = target: T1, CD3 expressed on cell-surface of …; assay: flow cytometry on PBMCs, % anti-huIgG+ CD4+ cells, donor hu 340
Description: (§1) Briefly, PBMCs from healthy human donors and healthy rhesus or cynomolgus monkey donors were incubated with different concentrations of HIV×CD3 bispecific molecules for 1 hour at RT. […] Cells were then washed, fixed/permeabilized, and analyzed on BD LSRFortessa. The percentage of α-huIgG-APC-positive CD4+ and CD8+ T cells and the mFI of the α-huIgG-APC of CD4+ and CD8+ cells were collected, and data analyzed using GraphPad Prism.

[3] = target: T1, CD3 expressed on cell-surface of …; assay: flow cytometry on PBMCs, % anti-huIgG+ CD8+ cells, donor hu 151
Description: as §1

[4] = target: T1, CD3 expressed on cell-surface of …; assay: flow cytometry on PBMCs, % anti-huIgG+ CD8+ cells, donor hu 340
Description: as §1

[5] = target: CD3 on rhesus monkey T cells in PBMCs (rhesus monkey); assay: flow cytometry on PBMCs, % anti-huIgG+ CD4+ cells, donor rh 3483
CD3 on rhesus monkey T cells in PBMCs (rhesus monkey), sequence (P16003 26-458): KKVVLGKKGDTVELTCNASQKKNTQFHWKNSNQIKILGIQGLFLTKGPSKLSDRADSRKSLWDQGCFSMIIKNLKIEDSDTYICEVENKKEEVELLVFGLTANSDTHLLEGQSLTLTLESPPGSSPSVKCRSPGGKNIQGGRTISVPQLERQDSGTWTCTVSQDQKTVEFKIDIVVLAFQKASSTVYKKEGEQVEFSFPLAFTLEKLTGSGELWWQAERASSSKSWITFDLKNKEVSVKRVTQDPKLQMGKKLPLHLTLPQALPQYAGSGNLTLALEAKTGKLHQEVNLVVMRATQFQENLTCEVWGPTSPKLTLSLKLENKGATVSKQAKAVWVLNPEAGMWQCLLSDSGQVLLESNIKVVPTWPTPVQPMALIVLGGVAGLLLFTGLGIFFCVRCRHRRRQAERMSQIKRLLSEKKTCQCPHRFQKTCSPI

[6] = target: CD3 on rhesus monkey T cells in PBMCs (rhesus monkey); assay: flow cytometry on PBMCs, % anti-huIgG+ CD4+ cells, donor rh 3563
[7] = target: CD3 on rhesus monkey T cells in PBMCs (rhesus monkey); assay: flow cytometry on PBMCs, % anti-huIgG+ CD8+ cells, donor rh 3483
[8] = target: CD3 on rhesus monkey T cells in PBMCs (rhesus monkey); assay: flow cytometry on PBMCs, % anti-huIgG+ CD8+ cells, donor rh 3563

T1 sequence (P07766 23-207 limits assumed, chain 1 of 2): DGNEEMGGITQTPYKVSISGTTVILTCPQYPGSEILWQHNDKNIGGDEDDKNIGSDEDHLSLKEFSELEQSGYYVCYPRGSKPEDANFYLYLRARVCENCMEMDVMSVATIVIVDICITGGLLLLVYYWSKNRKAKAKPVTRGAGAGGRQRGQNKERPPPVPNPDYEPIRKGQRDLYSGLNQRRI
T1 sequence (P04234 22-171 limits assumed, chain 2 of 2): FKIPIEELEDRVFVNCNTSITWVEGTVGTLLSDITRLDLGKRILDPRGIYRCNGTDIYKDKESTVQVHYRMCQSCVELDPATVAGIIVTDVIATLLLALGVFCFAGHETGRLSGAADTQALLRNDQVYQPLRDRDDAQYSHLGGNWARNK

B1: hPGT121.66 AAS + W/huSP34.3.8 scFv AAS + SAV + R (bispecific antibody, human IgG1, lambda, L234A L235A)
chain: EVQLVESGGGLVQPGGSLRLSCAASGFTFNTYAMNWVRQAPGKGLEWVGRIRSKYNNYATYYADSVKGRFTISRDDSKNSLYLQMNSLRTEDTAVYYCVRHGNFGHSYVSWFAYWGQGTLVTVSSGGGGSGGGGSGGGGSGGGGSQAVVTQEPSLTVSPGGTVTLTCGSSTGAVTTGHYANWVQQKPGQAPRGLIGGTNKRAPGVPARFSGSLLGGKAALTISGAQPEDEAEYYCALWYSNRWVFGGGTKLTVLEPKSSDKTHTCPPCPAPEAAGGPSVFLFPPKPKDTLMISRTPEVTCVVVDVSHEDPEVKFNWYVDGVEVHNAKTKPREEQYNSTYRVVSVLTVLHQDWLNGKEYKCKVSNKALPASIEKTISKAKGQPREPQVYTLPPSREEMTKNQVSLSCAVKGFYPSDIAVEWESNGQPENNYKTTPPVLDSDGSFFLVSKLTVDKSRWQQGNVFSCSVMHEALHNRYTQKSLSLSPGK
heavy: QMQLQESGPGLVKPSETLSLTCSVSGASISDSYWSWIRRSPGKGLEWIGYVHKSGDTNYNPSLKSRVHLSLDTSKNQVSLSLTGVTAADSGKYYCARTLHGRRIYGIVAFNEWFTYFYMDVWGTGTQVTVSSASTKGPSVFPLAPSSKSTSGGTAALGCLVKDYFPEPVTVSWNSGALTSGVHTFPAVLQSSGLYSLSSVVTVPSSSLGTQTYICNVNHKPSNTKVDKKVEPKSCDKTHTCPPCPAPEAAGGPSVFLFPPKPKDTLMISRTPEVTCVVVDVSHEDPEVKFNWYVDGVEVHNAKTKPREEQYNSTYRVVSVLTVLHQDWLNGKEYKCKVSNKALPASIEKTISKAKGQPREPQVYTLPPSREEMTKNQVSLWCLVKGFYPSDIAVEWESNGQPENNYKTTPPVLDSDGSFFLYSKLTVDKSRWQQGNVFSCSVMHEALHNHYTQKSLSLSPGK
light: not shown
EC50 [1]: 0.03 µg/mL
EC50 [2]: 0.05 µg/mL
EC50 [3]: 0.04 µg/mL
EC50 [4]: 0.06 µg/mL
EC50 [5]: 0.02 µg/mL
EC50 [6]: 0.02 µg/mL
EC50 [7]: 0.04 µg/mL
EC50 [8]: 0.08 µg/mL

B2: hPGT121.66 AAS + W/huSP34.13.8 scFv AAS + SAV + R (bispecific antibody, human IgG1, lambda, L234A L235A)
chain: EVQLVESGGGLVQPGGSLRLSCAASGFTFSTYAMNWVRQAPGKGLEWVGRIRSKYNNYATYYAASVKGRFTISRDDSKNTLYLQMNSLRTEDTAVYYCVRHGNFGHSYVSWFAYWGQGTLVTVSSGGGGSGGGGSGGGGSGGGGSQAVVTQEPSLTVSPGGTVTLTCGSSTGAVTTGHYANWVQQKPGQAPRGLIGGTNKRAPGVPARFSGSLLGGKAALTISGAQPEDEAEYYCALWYSNRWVFGGGTKLTVLEPKSSDKTHTCPPCPAPEAAGGPSVFLFPPKPKDTLMISRTPEVTCVVVDVSHEDPEVKFNWYVDGVEVHNAKTKPREEQYNSTYRVVSVLTVLHQDWLNGKEYKCKVSNKALPASIEKTISKAKGQPREPQVYTLPPSREEMTKNQVSLSCAVKGFYPSDIAVEWESNGQPENNYKTTPPVLDSDGSFFLVSKLTVDKSRWQQGNVFSCSVMHEALHNRYTQKSLSLSPGK
heavy: QMQLQESGPGLVKPSETLSLTCSVSGASISDSYWSWIRRSPGKGLEWIGYVHKSGDTNYNPSLKSRVHLSLDTSKNQVSLSLTGVTAADSGKYYCARTLHGRRIYGIVAFNEWFTYFYMDVWGTGTQVTVSSASTKGPSVFPLAPSSKSTSGGTAALGCLVKDYFPEPVTVSWNSGALTSGVHTFPAVLQSSGLYSLSSVVTVPSSSLGTQTYICNVNHKPSNTKVDKKVEPKSCDKTHTCPPCPAPEAAGGPSVFLFPPKPKDTLMISRTPEVTCVVVDVSHEDPEVKFNWYVDGVEVHNAKTKPREEQYNSTYRVVSVLTVLHQDWLNGKEYKCKVSNKALPASIEKTISKAKGQPREPQVYTLPPSREEMTKNQVSLWCLVKGFYPSDIAVEWESNGQPENNYKTTPPVLDSDGSFFLYSKLTVDKSRWQQGNVFSCSVMHEALHNHYTQKSLSLSPGK
light: not shown
notes: also called 261
EC50 [1]: 0.06 µg/mL
EC50 [2]: 0.07 µg/mL
EC50 [3]: 0.08 µg/mL
EC50 [4]: 0.1 µg/mL
EC50 [5]: 0.07 µg/mL
EC50 [6]: 0.07 µg/mL
EC50 [7]: 0.13 µg/mL
EC50 [8]: 0.2 µg/mL

B3: hPGT121.66 AAS + W/huSP34.3.13scFv AAS + SAV + R (bispecific antibody, human IgG1, lambda, L234A L235A)
chain: EVQLVESGGGLVQPGGSLRLSCAASGFTFNTYAMNWVRQAPGKGLEWVGRIRSKYNNYATYYADSVKGRFTISRDDSKNSLYLQMNSLRTEDTAVYYCVRHGNFGHSYVSWFAYWGQGTLVTVSSGGGGSGGGGSGGGGSGGGGSQAVVTQEPSLTVSPGGTVTLTCGSSTGAVTTGHYANWVQQKPGQAPRGLIGGTSNRAPGVPARFSGSLLGGKAALTISGAQPEDEAEYYCALWYSNRWVFGGGTKLTVLEPKSSDKTHTCPPCPAPEAAGGPSVFLFPPKPKDTLMISRTPEVTCVVVDVSHEDPEVKFNWYVDGVEVHNAKTKPREEQYNSTYRVVSVLTVLHQDWLNGKEYKCKVSNKALPASIEKTISKAKGQPREPQVYTLPPSREEMTKNQVSLSCAVKGFYPSDIAVEWESNGQPENNYKTTPPVLDSDGSFFLVSKLTVDKSRWQQGNVFSCSVMHEALHNRYTQKSLSLSPGK
heavy: QMQLQESGPGLVKPSETLSLTCSVSGASISDSYWSWIRRSPGKGLEWIGYVHKSGDTNYNPSLKSRVHLSLDTSKNQVSLSLTGVTAADSGKYYCARTLHGRRIYGIVAFNEWFTYFYMDVWGTGTQVTVSSASTKGPSVFPLAPSSKSTSGGTAALGCLVKDYFPEPVTVSWNSGALTSGVHTFPAVLQSSGLYSLSSVVTVPSSSLGTQTYICNVNHKPSNTKVDKKVEPKSCDKTHTCPPCPAPEAAGGPSVFLFPPKPKDTLMISRTPEVTCVVVDVSHEDPEVKFNWYVDGVEVHNAKTKPREEQYNSTYRVVSVLTVLHQDWLNGKEYKCKVSNKALPASIEKTISKAKGQPREPQVYTLPPSREEMTKNQVSLWCLVKGFYPSDIAVEWESNGQPENNYKTTPPVLDSDGSFFLYSKLTVDKSRWQQGNVFSCSVMHEALHNHYTQKSLSLSPGK
light: not shown
EC50 [1]: 0.07 µg/mL
EC50 [2]: 0.1 µg/mL
EC50 [3]: 0.09 µg/mL
EC50 [4]: 0.14 µg/mL
EC50 [5]: 0.06 µg/mL
EC50 [6]: 0.08 µg/mL
EC50 [7]: 0.11 µg/mL
EC50 [8]: 0.21 µg/mL

B4: hPGT121.66 AAS + W/huSP34.34.10 scFv AAS + SAV + R (bispecific antibody, human IgG1, lambda, L234A L235A)
chain: EVQLVESGGGLVQPGGSLRLSCAASGFTFNTYAMNWVRQAPGKGLEWVGRIRSKYNNYATYYAASVKGRFTISRDDSKNSLYLQMNSLKTEDTAMYYCVRHGNFGHSYVSWFAYWGQGTLVTVSSGGGGSGGGGSGGGGSGGGGSQAVVTQPPSLTVSPGGTVTLTCGSSTGAVTTGHYANWVQQKPGQAPRGLIGGTNKRAPGVPARFSGSLSGGKAALTISGAQPEDEAEYYCALWYSNRWVFGGGTKLTVLEPKSSDKTHTCPPCPAPEAAGGPSVFLFPPKPKDTLMISRTPEVTCVVVDVSHEDPEVKFNWYVDGVEVHNAKTKPREEQYNSTYRVVSVLTVLHQDWLNGKEYKCKVSNKALPASIEKTISKAKGQPREPQVYTLPPSREEMTKNQVSLSCAVKGFYPSDIAVEWESNGQPENNYKTTPPVLDSDGSFFLVSKLTVDKSRWQQGNVFSCSVMHEALHNRYTQKSLSLSPGK
heavy: QMQLQESGPGLVKPSETLSLTCSVSGASISDSYWSWIRRSPGKGLEWIGYVHKSGDTNYNPSLKSRVHLSLDTSKNQVSLSLTGVTAADSGKYYCARTLHGRRIYGIVAFNEWFTYFYMDVWGTGTQVTVSSASTKGPSVFPLAPSSKSTSGGTAALGCLVKDYFPEPVTVSWNSGALTSGVHTFPAVLQSSGLYSLSSVVTVPSSSLGTQTYICNVNHKPSNTKVDKKVEPKSCDKTHTCPPCPAPEAAGGPSVFLFPPKPKDTLMISRTPEVTCVVVDVSHEDPEVKFNWYVDGVEVHNAKTKPREEQYNSTYRVVSVLTVLHQDWLNGKEYKCKVSNKALPASIEKTISKAKGQPREPQVYTLPPSREEMTKNQVSLWCLVKGFYPSDIAVEWESNGQPENNYKTTPPVLDSDGSFFLYSKLTVDKSRWQQGNVFSCSVMHEALHNHYTQKSLSLSPGK
light: not shown
EC50 [1]: 0.06 µg/mL
EC50 [2]: 0.06 µg/mL
EC50 [3]: 0.07 µg/mL
EC50 [4]: 0.08 µg/mL
EC50 [5]: 0.03 µg/mL
EC50 [6]: 0.05 µg/mL
EC50 [7]: 0.1 µg/mL
EC50 [8]: 0.16 µg/mL

B5: hPGT121.66 AAS + W/huSP34.34.3 scFv AAS + SAV + R (bispecific antibody, human IgG1, lambda, L234A L235A)
chain: not shown
heavy: QMQLQESGPGLVKPSETLSLTCSVSGASISDSYWSWIRRSPGKGLEWIGYVHKSGDTNYNPSLKSRVHLSLDTSKNQVSLSLTGVTAADSGKYYCARTLHGRRIYGIVAFNEWFTYFYMDVWGTGTQVTVSSASTKGPSVFPLAPSSKSTSGGTAALGCLVKDYFPEPVTVSWNSGALTSGVHTFPAVLQSSGLYSLSSVVTVPSSSLGTQTYICNVNHKPSNTKVDKKVEPKSCDKTHTCPPCPAPEAAGGPSVFLFPPKPKDTLMISRTPEVTCVVVDVSHEDPEVKFNWYVDGVEVHNAKTKPREEQYNSTYRVVSVLTVLHQDWLNGKEYKCKVSNKALPASIEKTISKAKGQPREPQVYTLPPSREEMTKNQVSLWCLVKGFYPSDIAVEWESNGQPENNYKTTPPVLDSDGSFFLYSKLTVDKSRWQQGNVFSCSVMHEALHNHYTQKSLSLSPGK
light: not shown
EC50 [1]: 1.41 µg/mL
EC50 [2]: 1.64 µg/mL
EC50 [3]: 1.62 µg/mL
EC50 [4]: 1.21 µg/mL
EC50 [5]: 0.93 µg/mL
EC50 [6]: 1.48 µg/mL
EC50 [7]: 2.35 µg/mL
EC50 [8]: 3.52 µg/mL
